Reference: IntAct's records for PubMed 11967127

B1: Disabled homolog 1 (Mus musculus), P97318 (parent)
chain: MSTETELQVAVKTSAKKDSRKKGQDRSEATLIKRFKGEGVRYKAKLIGIDEVSAARGDKLCQDSMMKLKGVVAGARSKGEHKQKIFLTISFGGIKIFDEKTGALQHHHAVHEISYIAKDITDHRAFGYVCGKEGNHRFVAIKTAQAAEPVILDLRDLFQLIYELKQREELEKKAQKDKQCEQAVYQTILEEDVEDPVYQYIVFEAGHEPIRDPETEENIYQVPTSQKKEGVYDVPKSQPNSQPLEDFESRFAAATPNRNLSMDFDELLEATKVSAVTQLELFGDMSTPPDITSPPTPATPGDAFLPSSSQTLPGSADVFGSMSFGTAAVPSGYVAMGAVLPSFWGQQPLVQQQIAMGAQPPVAQVIPGAQPIAWGQPGLFPATQQAWPTVAGQFPPAAFMPTQTVMPLAAAMFQGPLTPLATVPGTNDSARSSPQSDKPRQKMGKESFKDFQMVQPPPVPSRKPDQPSLTCTSEAFSSYFNKVGVAQDTDDCDDFDISQLNLTPVTSTTPSTNSPPTPAPRQSSPSKSSASHVSDPTADDIFEEGFESPSKSEEQEAPDGSQASSTSDPFGEPSGEPSGDNISPQDGS
B2: Disabled homolog 2 (Mus musculus), P98078 (parent)
chain: MSNEVETSTTNGQPDQQAAPKAPSKKEKKKGSEKTDEYLLARFKGDGVKYKAKLIGIDDVPDARGDKMSQDSMMKLKGMAAAGRSQGQHKQRIWVNISLSGIKIIDEKTGVIEHEHPVNKISFIARDVTDNRAFGYVCGGEGQHQFFAIKTGQQAEPLVVDLKDLFQVIYNVKKKEEDKKKVEEANKAEENGSEALMTLDDQANKLKLGVDQMDLFGDMSTPPDLNSPTESKDILLVDLNSEIDTNQNSLRENPFLTNGVTSCSLPRPKPQASFLPENAFSANLNFFPTPNPDPFRDDPFAQPDQSAPSSFDSLTSPDQKKASLSSSSTPQSKGPLNGDTDYFGQQFDQLSNRTGKPEAQGGPWPYPSSQTQQAVRTQNGVSEREQNGFHIKSSPNPFVGSPPKGLSVPNGVKQDLESSVQSSAHDSIAIIPPPQSTKPGRGRRTAKSSANDLLASDIFASEPPGQMSPTGQPAVPQSNFLDLFKGNAPAPVGPLVGLGTVPVTPPQAGPWTPVVYSPSTTVVPGAIISGQPPSFRQPLVFGTTPAVQVWNQSPSFATPASPPPPTVWCPTTSVAPNAWSSTSPLGNPFQSNNIFPPPTMSTQSSPQPMMSSVLATPPQPPPRNGPLKDIPSDAFTGLDPLGDKEVKEVKEMFKDFQLRQPPLVPSRKGETPPSGTSSAFSSYFNNKVGIPQEHVDHDDFDANQLLNKINEPPKPAPRQGVLLGTKSADNSLENPFSKGFSSSNPSVVSQPASSDPHRSPFGNPFA

Variants of: B1
Details: with myo6_chick MYO6, Q9I8D1
Target sequence in this assay (Q9I8D1 whole entry): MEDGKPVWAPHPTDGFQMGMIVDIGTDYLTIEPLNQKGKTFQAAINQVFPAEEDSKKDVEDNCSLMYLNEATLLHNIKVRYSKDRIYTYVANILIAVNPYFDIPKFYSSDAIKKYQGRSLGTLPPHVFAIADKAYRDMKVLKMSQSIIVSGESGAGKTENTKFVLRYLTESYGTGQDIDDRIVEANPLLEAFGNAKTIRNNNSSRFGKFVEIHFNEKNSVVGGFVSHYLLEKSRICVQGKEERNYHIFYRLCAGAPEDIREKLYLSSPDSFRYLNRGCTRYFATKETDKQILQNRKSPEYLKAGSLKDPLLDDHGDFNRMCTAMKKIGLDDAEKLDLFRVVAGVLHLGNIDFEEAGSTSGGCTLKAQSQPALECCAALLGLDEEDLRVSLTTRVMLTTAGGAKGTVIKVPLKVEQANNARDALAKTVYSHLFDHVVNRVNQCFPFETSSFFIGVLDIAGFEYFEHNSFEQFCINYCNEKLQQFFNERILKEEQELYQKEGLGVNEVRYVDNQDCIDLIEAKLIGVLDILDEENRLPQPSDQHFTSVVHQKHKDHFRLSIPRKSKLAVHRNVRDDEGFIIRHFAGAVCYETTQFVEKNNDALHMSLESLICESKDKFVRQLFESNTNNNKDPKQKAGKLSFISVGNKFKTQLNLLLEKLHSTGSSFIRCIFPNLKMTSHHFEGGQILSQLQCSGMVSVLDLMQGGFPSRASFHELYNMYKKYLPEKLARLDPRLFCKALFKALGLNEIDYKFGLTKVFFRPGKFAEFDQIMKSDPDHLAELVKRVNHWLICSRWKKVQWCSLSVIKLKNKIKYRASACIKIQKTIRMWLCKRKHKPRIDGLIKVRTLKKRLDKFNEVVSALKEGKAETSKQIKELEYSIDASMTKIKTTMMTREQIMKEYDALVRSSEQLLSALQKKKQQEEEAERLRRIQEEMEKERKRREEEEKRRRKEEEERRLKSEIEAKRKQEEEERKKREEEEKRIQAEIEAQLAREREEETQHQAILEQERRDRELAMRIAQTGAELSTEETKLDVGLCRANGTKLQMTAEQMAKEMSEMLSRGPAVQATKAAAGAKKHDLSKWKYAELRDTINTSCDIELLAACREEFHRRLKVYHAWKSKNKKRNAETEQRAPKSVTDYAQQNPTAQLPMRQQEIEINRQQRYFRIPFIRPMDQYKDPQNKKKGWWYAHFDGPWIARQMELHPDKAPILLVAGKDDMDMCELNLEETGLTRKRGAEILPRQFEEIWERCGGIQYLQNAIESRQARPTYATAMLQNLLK
In the case of S478A;Y479A;F480A, the “effect of a mutation on the interaction” value is reported as “decreasing interaction”.

Variants of: B2
Details: with myo6_chick MYO6, Q9I8D1
Target sequence in this assay (Q9I8D1 whole entry): as above
D699A;F700A;D701A was tested, and the “effect of a mutation on the interaction” value was “decreasing interaction”.
S682A;Y683A;F684A was tested, and the “effect of a mutation on the interaction” value was “disrupting interaction”.
